Results from patent US20200405873A1, “PYRROLOBENZODIAZEPINE-ANTIBODY CONJUGATES” (MEDIMMUNE LIMITED, priority 2015, published 2020).

Biological target: T1, human CD25 (Homo sapiens, UniProt P01589)
T1 sequence (P01589 22-272): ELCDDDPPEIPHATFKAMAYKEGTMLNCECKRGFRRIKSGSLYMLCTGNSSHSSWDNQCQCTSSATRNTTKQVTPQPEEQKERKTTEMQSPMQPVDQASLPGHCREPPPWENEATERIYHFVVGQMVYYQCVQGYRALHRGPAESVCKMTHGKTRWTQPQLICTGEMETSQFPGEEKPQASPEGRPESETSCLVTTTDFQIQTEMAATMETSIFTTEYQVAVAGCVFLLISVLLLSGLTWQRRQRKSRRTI
Experiment: Binding of ADCT-301 to human CD25
Settings: stated in words only

ADCT-301: ADC of human anti-CD25 monoclonal antibody HuMax-TAC conjugated through a cleavable linker to PBD dimer cytotoxin SG3199
affinity to human CD25: picomolar
